Test results: patent publication US9371520B2

Target: purified native cellulosome of C. thermocellum ATCC 27405 (C. thermocellum ATCC 27405) (UniProt Q06851)

BglA-CohII (chimaeric C. thermocellum β-glucosidase A fused to the type-II cohesin module of the Orf2p anchoring protein) (enzyme)
hydrolysis of microcrystalline cellulose and pre-treated switchgrass (soluble reducing sugars): 2.68 fold

wild-type (WT) BglA, β-glucosidase A from C. thermocellum, as cloned (enzyme)
hydrolysis of microcrystalline cellulose and pre-treated switchgrass (soluble reducing sugars): 2.06 fold
